Test results: article PMC5790771, “Reconstitution of Pure Chaperonin Hetero-Oligomer Preparations in Vitro by Temperature Modulation” (Frontiers in Molecular Biosciences, 2018)

B2: Cpn60β2 (At3g13470) (natural protein, A. thaliana, UniProt Q9LJE4 51-596, looked up)
chain: AAKELHFNKDGTTIRKLQTGVNKLADLVGVTLGPKGRNVVLESKYGSPRIVNDGVTVAREVELEDPVENIGAKLVRQAAAKTNDLAGDGTTTSVVLAQGFIAEGVKVVAAGANPVLITRGIEKTAKALVNELKLMSKEVEDSELADVAAVSAGNNHEVGSMIAEAMSKVGRKGVVTLEEGKSAENNLYVVEGMQFDRGYISPYFVTDSEKMSVEYDNCKLLLVDKKVTNARDLVGVLEDAIRGGYPILIIAEDIEQEALATLVVNKLRGTLKIAALKAPGFGERKSQYLDDIAILTGATVIREEVGLSLDKAGKEVLGNASKVVLTKEMTTIVGDGTTQEAVNKRVVQIRNLIEQAEQDYEKEKLNERIAKLSGGVAVIQVGAQTETELKEKKLRVEDALNATKAAVEEGIVVGGGCTLLRLASKVDAIKDTLENDEEKVGAEIVKRALSYPLKLIAKNAGVNGSVVSEKVLANDNVKFGYNAATGKYEDLMAAGIIDPTKVVRCCLEHAASVAKTFLMSDCVVVEIPEPEPVPAGNPMDNSGYGY
notes: Cpn60β2, chloroplast chaperonin 60 beta subunit of A. thaliana, At3g13470; also called β2 Cpn60; source: purified by a previously published protocol (Vitlin et al., 2011)

Legend:
[1] = biological target: the molecule itself; experiment: cross-linking; 20 μM purified protein, 0.1% glutaraldehyde, room temperature, 50 mM Na-HEPES (pH 8 in the legend, 7.5 in the methods), 10 mM MgCl2, 100 mM KCl; SDS-PAGE on a 2.4-12% gradient gel, Coomassie
[2] = biological target: the molecule itself; experiment: SEC; 300 μM β2 and 150 μM mt-cpn10 reconstituted with Mg-ATP (600 μl), Superdex 200 run at room temperature; fractions on SDS-PAGE
Cpn60β2 (At3g13470) = biological target: B2; experiment: SEC; 150 μM α2, 100 μM β2 and 50 μM mt-cpn10 reconstituted with Mg-ATP (2 ml), Superdex 200 run at 4°C in 50 mM Tris-HCl pH 8, 300 mM NaCl, 5% glycerol; fractions on SDS-PAGE; details: both partners purified
Cpn60β3 (At1g55490) = biological target: T1, Cpn60β3 (At1g55490) (A. thaliana, UniProt P21240 55-600); experiment: native gel or EMSA; reconstitution: 150 μM Cpn60α2 with 100 μM Cpn60β and 50 μM Cpn10 (GroES, mt-cpn10, Cpn20 or Cpn10(2)); 50 mM Tris-HCl pH 8, 0.3 M NaCl, 10 mM MgCl2, 16 mM KCl, 2 mM DTT, 5 mM ATP; 5 min at room temperature, 1 h at 30°C; 6% native polyacrylamide gel; details: both partners purified
T1 construct: Cpn60β3, chloroplast chaperonin 60 beta subunit of A. thaliana, At1g55490; also called β3 Cpn60; source: purified by a previously published protocol (Vitlin et al., 2011)
T1 sequence (P21240 55-600): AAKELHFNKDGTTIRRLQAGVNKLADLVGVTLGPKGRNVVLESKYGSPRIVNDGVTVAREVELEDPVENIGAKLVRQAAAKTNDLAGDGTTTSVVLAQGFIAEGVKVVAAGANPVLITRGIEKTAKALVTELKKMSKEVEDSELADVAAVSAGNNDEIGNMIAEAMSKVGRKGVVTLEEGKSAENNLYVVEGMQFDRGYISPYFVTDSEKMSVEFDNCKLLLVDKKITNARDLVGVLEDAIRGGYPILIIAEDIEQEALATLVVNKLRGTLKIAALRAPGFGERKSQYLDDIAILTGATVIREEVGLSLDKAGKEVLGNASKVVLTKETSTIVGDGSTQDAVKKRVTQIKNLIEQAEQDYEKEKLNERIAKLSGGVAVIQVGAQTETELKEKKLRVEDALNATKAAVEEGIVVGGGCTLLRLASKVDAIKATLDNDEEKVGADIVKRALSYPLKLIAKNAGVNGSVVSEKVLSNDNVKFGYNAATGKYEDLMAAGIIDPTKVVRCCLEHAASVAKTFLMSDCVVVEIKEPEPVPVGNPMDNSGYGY

B1: Cpn60α1 (At5g18820) (natural protein)
chain: not shown
notes: additional glycine-serine at the N-terminus, left by the cloning (printed in words); Cpn60α1, chloroplast chaperonin 60 alpha subunit of A. thaliana, At5g18820; 543 residues without the putative transit peptide; The vector codes for an octa-histidine tag followed by a TEV site at the amino terminus; also called α1 Cpn60; Cpn60α1 subunit; source: E. coli Rosetta (Novagen), purified based on the …
With B1 the “stoichiometry N” value [1] was 2.

B2: binds [2].

B3: Cpn60α2 (At2g28000) (natural protein)
chain: not shown
notes: additional glycine-serine at the N-terminus, left by the cloning (printed in words); Cpn60α2, chloroplast chaperonin 60 alpha subunit of A. thaliana, At2g28000; 541 residues without the putative transit peptide; The vector codes for an octa-histidine tag followed by a TEV site at the amino terminus; also called α2 Cpn60; Cpn60α2 subunit; source: E. coli Rosetta (Novagen), purified based on the …
B3: binds (Cpn60β2 (At3g13470)); binds (Cpn60β3 (At1g55490)).
